Experimental data: publication PMC11096383

Molecular target: G12D (M3D-GPR183/ICL3 F93^1.57V), FLAG-epitope-tagged (human)
Sequence (chain, as listed by the source G12D): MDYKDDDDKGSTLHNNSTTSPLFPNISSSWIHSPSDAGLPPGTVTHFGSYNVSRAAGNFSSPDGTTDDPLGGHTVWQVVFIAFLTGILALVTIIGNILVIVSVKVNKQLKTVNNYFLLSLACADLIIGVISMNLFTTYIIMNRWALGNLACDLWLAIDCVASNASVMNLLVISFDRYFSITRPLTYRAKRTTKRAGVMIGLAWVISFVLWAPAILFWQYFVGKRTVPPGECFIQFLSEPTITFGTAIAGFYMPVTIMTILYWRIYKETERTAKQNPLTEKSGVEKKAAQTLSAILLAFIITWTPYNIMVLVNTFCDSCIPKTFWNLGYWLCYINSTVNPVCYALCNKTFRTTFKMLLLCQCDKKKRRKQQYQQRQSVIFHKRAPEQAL

B1: Gα_(q-12C) (protein)
chain: MTLESIMACCLSEEAKEARRINDEIERQLRRDKRDARRELKLLLLGTGESGKSTFIKQMRIIHGSGYSDEDKRGFTKLVYQNIFTAMQAMIRAMDTLKIPYKYEHNKAHAQLVREVDVEKVSAFENPYVDAIKSLWNDPGIQECYDRRREYQLSDSTKYYLNDLDRVADPAYLPTQQDVLRVRVPTTGIIEYPFDLQSVIFRMVDVGGQRSERRKWIHCFENVTSIMFLVALSEYDQVLVESDNENRMEESKALFRTIITYPWFQNSSVILFLNKKDLLEEKIMYSHLVDYFPEYDGPQRDAQAAREFILKMFVDLNPDSDKIIYSHFTCATDTENVRFVFHAVKDTILQENLKDIMLQ
  TGFα shedding assay (AP-TGFα release on CNO, concentration-response) in ∆Gq/∆G12 HEK293 cells; relative intrinsic activity (RAi) of Gα (q-12C) against Gα (q-13C): 4.6 fold
